Data from patent publication US20140178373A1 (TORAY INDUSTRIES, published 2014).

T1: CAPRIN-1 protein on the cell membrane surface of human cancer cell lines (human, UniProt Q14444 2-709)
T1 sequence (looked up): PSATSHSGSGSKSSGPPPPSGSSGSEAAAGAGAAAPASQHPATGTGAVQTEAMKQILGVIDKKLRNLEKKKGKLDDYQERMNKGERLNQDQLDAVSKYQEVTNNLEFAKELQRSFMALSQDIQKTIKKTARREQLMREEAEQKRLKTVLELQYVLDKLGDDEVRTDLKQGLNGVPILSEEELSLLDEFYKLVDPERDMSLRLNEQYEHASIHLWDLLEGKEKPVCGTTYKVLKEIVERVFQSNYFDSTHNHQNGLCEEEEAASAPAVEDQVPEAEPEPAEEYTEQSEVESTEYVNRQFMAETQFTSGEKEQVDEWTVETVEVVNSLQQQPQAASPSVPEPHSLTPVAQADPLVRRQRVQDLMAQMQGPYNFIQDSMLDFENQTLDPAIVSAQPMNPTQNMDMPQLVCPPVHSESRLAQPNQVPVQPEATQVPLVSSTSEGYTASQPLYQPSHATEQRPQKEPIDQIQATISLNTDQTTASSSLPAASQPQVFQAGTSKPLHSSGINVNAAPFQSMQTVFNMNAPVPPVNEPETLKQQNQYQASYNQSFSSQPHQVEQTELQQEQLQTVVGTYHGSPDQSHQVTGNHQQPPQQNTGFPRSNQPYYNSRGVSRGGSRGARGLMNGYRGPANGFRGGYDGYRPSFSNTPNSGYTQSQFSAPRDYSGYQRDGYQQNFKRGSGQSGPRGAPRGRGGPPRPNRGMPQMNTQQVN


molecular target: T1, CAPRIN-1 protein on the cell membrane …; experiment: cell-based or functional assay

Row | Binder | cytotoxic activity (ADCC) against MCF7, HCT-116, MIAPaCa-2, Caki-2 and QG56 | cytotoxic activity (ADCC) against all other cancer cells (19 further cell lines)
1 | human-mouse chimeric comparative antibody 7 (antibody, human IgG1, kappa, V domains shown) VH: LQESGAELARPGASVKLSCKASGYTFTSYWMQWVKQRPGQGLEWIGAIYPGDGDTRYTQKFKGKATLTADKSSSTAYMQLSSLASEDSAVYYCARGEYGNYFAYWGQGTTVTVSS VL: TSDASLGERVTITCKASQDINSYLSWFQQKPGKSPKTLIYRANRLVDGVPSRFSGSGSGQDYSLTISSLEYEDMGIYYCLQYDEFPLTFGGGTKLEIKQ | < 5% | < 4%
2 | human-mouse chimeric comparative antibody 4 (antibody, human IgG1, kappa, V domains shown) VH: EVQLHQFGAELVKPGASVKISCKASGYTFTDYNMDWVKQSHGKSLEWIGDINPNYDSTSYNQKFKGKATLTVDKSSSTAYMELRSLTSEDTAVYYCARSRSYDYEGFAYWGQGTLVTVSA VL: SGDRVSLSCRASQSISNYLHWYQQKSHESPRLLIKYASQSISGIPSRFSGSGSGTDFTLSINSVETEDFGMYFCQQSNSWPYTFGAGTKLEIKQ | < 5% | < 4%
3 | human-mouse chimeric comparative antibody 1 (antibody) heavy: not shown light: DIQMTQSPASLSASVGETVTITCRASGNIHNYLAWYQQKQGKSPQLLVYNAKTLADGVPSRFSGSGSGTQYSLKINSLQPEDFGSYYCQHFWSTLTFGAGTKLELKRTVAAPSVFIFPPSDEQLKSGTASVVCLLNNFYPREAKVQWKVDNALQSGNSQESVTEQDSKDSTYSLSSTLTLSKADYEKHKVYACEVTHQGLSSPVTKSFNRGEC | < 5% | < 4%
4 | human-mouse chimeric comparative antibody 3 (antibody) heavy: not shown light: DIQLTQSPASLSASVGETVTITCRASGNIHNYLAWYQQKQGKSPQLLVYNAKTLADGVPSRFSGSGSGTQYSLKINSLQPEDFGSYYCQHFWSTLTFGGGTKLEIKQTVAAPSVFIFPPSDEQLKSGTASVVCLLNNFYPREAKVQWKVDNALQSGNSQESVTEQDSKDSTYSLSSTLTLSKADYEKHKVYACEVTHQGLSSPVTKSFNRGEC | < 5% | < 4%
